# From paper PMC2714593, “Insights into the role of Val45 and Gln182 of Escherichia coli MutY in DNA substrate binding and specificity”
# T1: MutY (EcMutY) wild type (Escherichia coli, UniProt P17802 1-350)
# T1 sequence: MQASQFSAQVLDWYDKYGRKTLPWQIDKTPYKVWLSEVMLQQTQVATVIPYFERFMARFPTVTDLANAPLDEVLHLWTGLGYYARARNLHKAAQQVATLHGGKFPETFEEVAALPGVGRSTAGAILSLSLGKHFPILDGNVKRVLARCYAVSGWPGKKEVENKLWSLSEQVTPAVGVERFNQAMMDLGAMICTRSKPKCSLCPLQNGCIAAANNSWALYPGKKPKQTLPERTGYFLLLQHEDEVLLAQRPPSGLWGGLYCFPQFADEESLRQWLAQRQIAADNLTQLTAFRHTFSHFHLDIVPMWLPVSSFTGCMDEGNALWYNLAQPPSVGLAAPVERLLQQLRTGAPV
# B1: T/G 44-mer (dsDNA)
# DNA 1: AATTGGGCTCCTCGAGGAATTTGCCTTCTGCAGGCATGCCCCGG
# DNA 2: CCGGGGCATGCCTGCAGAAGGCGAATTCCTCGAGGAGCCCAATT
# Molecular target: T1, MutY (EcMutY) wild type
# Assay: EMSA; 20 mM Tris-HCl pH 7.6, 80 mM NaCl, 1 mM DTT, 1 mM EDTA, 2.9% glycerol, 20 ng poly dI/dC per 20 ul, 0.09 nM labeled DNA, 30 min at 30 C; 4% PAGE in TBE
# Settings: protein: recombinant; label: 5'-32P on X strand; blunt; T/G mismatch at strand 1 position 22
binder,measurement,value
B1,Kd,14 ± 1 nM
